We go through 5 molecules from patent US9695426B2, “Biofuel production by recombinant microorganisms” (The Regents of the University of California, priority 2007, dated 2017).

Where a chain is given by its changes, count along the chain named. Names and notes keep the numbering of the source.

Data set [1] concerns wild-type E. coli strain (JCL16). Kind of data set: isobutanol tolerance of E. coli. From the text:
Non-native hosts such as E. coli lack tolerance to high alcohols. Isobutanol is as toxic as 1-butanol to microorganisms, and the native 1-butanol producers can tolerate 1-butanol concentration up to about 2%. To show the potential for improving tolerance, in vitro evolution by the sequential transfer of cultures was used to enrich for strains with mutations which increase isobutanol tolerance. […] Other strategies such as gTME can be used for further improvement of tolerance.

The test system of data set [2] is JCL260. Kind of data set: α-keto acid production with IPMS variants. In kind it is cell-based, E. coli. On the procedure:
All α-keto acid experiments were done under oxygen ‘rich’ conditions unless otherwise noted. For oxygen rich experiments, 10 mL cultures in 250 mL baffled shake flasks were inoculated 1% from 3 mL overnight cultures in LB. For oxygen poor experiments, 10 mL cultures were inoculated in 125 mL screw caps as previously described. All cultures were grown at 37° C. for 4 hours and induced with 1 mM IPTG and harvested after 18 hrs of growth at 30° C.
For other secreted metabolites, filtered supernatant was applied (20 ul) to an Agilent 1100 HPLC equipped with an auto-sampler (Agilent Technologies) and a BioRad (Biorad Laboratories, Hercules, Calif.) Aminex HPX87 column (5 mM H2SO4, 0.6 ml/min, column temperature at 65° C.). Glucose was detected with a refractive index detector, while organic acids were detected using a photodiode array detector at 210 nm. Concentrations were determined by extrapolation from standard curves.
In order to investigate this hypothesis, the production of the α-keto acid precursors, the substrates for kivd, to isobutanol and 3-methyl-1-butanol were examined. […] In hopes of increasing the KIC pool, the expression level of leuA was increased by changing the RBS from its native sequence to a more consensus sequence.
Isopropylmalate synthase (IPMS) catalyzes the condensation of KIV with acetyl-CoA. […] To relieve the feedback inhibition of the leuA gene product, two strategies were employed. A feedback insensitive mutant of IPMS (IPMS (G462D)) was employed. Second, the final step in the L-leucine synthesis pathway was inactivated by deleting ilvE (branched-chain amino acid transferase) and tyrB (tyrosine aminotransferase), two isozymes responsible for converting α-ketoisocaproate into L-leucine.

Data set [3] concerns JCL260. It counts as cell-based, E. coli. The conditions noted are these: for 3-methyl-1-butanol final titer / isobutanol accumulation: ilvE+ tyrB+ background. On the procedure:
Final production experiments were conducted as previously described, except that 20 mL modified M9 media containing 5 g/L of glucose was used in a 250 mL screw cap flask.
Metabolite Detections. The produced alcohol compounds were quantified by a gas chromatograph (GC) equipped with flame ionization detector. The system consisted of model 5890A GC (Hewlett-Packard, Avondale, Pa.) and a model 7673A automatic injector, sampler and controller (Hewlett-Packard). Supernatant of culture broth ([…]) was injected in split injection mode (1:15 split ratio) using methanol as the internal standard.
The separation of alcohol compounds was carried out by A DB-WAX capillary column (30 m, 0.32 mm-i.d., 0.50 μm-film thickness) purchased from Agilent Technologies (Santa. Clara, Calif.). GC oven temperature was initially held at 40° C. for 5 min and raised with a gradient of 15° C./min until 120° C. It was then raised with a gradient 50° C./min until 230° C. and held for 4 min. Helium was used as the carrier gas with 9.3 psi inlet pressure. The injector and detector were maintained at 225° C. 0.5 ul supernatant of culture broth was injected in split injection mode with a 1:15 split ratio. Methanol was used as the internal standard.

In data set [4] the test system is KS145. Kind of data set: 1-Propanol and 1-butanol production with the selected CimA mutants (citramalate pathway). The following applies: 30° C. for 40 h; for Production of 1-Butanol / Production of 1-Propanol: KS145 with pSA55 and pSA63 (cimA-leuABCD) or its variations; for 1-Butanol change (fold) relative to the strain containing wild-type CimA / 1-Propanol change (fold) relative to the strain containing wild-type CimA: KS145 with pSA55 and pSA63 variations. It counts as cell-based, E. coli. On the procedure: Medium and cultivation for 1-propanol and 1-butanol production. M9 medium containing 36 g/L glucose, 5 g/L yeast extract, 100 μg/ml ampicillin, 30 μg/ml kanamycin and 1000th dilution of Trace Metal Mix A5 (2.86 g H3BO3, 1.81 g MnCl2.4H2O, 0.222 g ZnSO4.7H2O, 0.39 g Na2MoO4.2H2O, 0.079 g CuSO4.5H2O, 49.4 mg Co(NO3)2.6H2O per liter water) was used for cell growth. Preculture in test tubes containing 3 ml of medium was performed at 37° C. overnight on a rotary shaker (250 rpm). Overnight culture was diluted 1:100 into 20 ml of fresh medium in a 250 ml screw cap conical flask. Cells were grown at 37° C. for 3 hr, followed by adding 0.1 mM IPTG. Cultivation was performed at 30° C. on a rotary shaker (250 rpm). Gas chromatography-flame ionization detector and high-performance liquid chromatography analyses were performed.
The citramalate pathway was then used to enhance the production of 1-propanol and 1-butanol (FIG. 13). An E. coli strain (KS145) auxotrophic for L-isoleucine, leucine, and valine (ΔilvI and ΔilvB). was transformed with pSA63 (or other plasmids containing variants of cimA) and pSA55 (PLlacO1::kivd-ADH2). The deletions of ilvI and ilvB (FIG. 13) were introduced for two reasons. First, the deletions eliminated the native substrate, 2-ketoisovalerate, for the leuABCD pathway, thus reducing the competitive substrate inhibition. Second, these deletions eliminated the production of 2-keto-3-methyl-valerate and 2-keto-4-methyl-pentanoate, which are competing substrates for Kivd. The strain expressing the wild-type cimA gene (KS145/pSA63/pSA55) produced 302 mg/liter 1-propanol and 18 mg/liter 1-butanol after 40 h (FIG. 60). KS145 with pSA55 only, where Kivd utilizes endogenous 2-keto acids, produced 40 mg/liter 1-propanol and 10 mg/liter 1-butanol under the same condition. KS145 without pSA55 and pSA63 produced neither 1-propanol nor 1-butanol (FIG. 60). Note that the yeast extract was added to the medium to boost the cell density.
1-Propanol and 1-butanol production was tested with the selected CimA variants in KS145 by replacing pSA63 with corresponding plasmids (Table 19) containing various cimA mutants. […] The production of 1-propanol and 1-butanol from the strain with CimA2 increased 3.9- and 4.3-fold, respectively, compared to the strain with the wild-type CimA.

For data set [5], the system named is KS145. Described as above. It counts as cell-based, E. coli. The following applies: ΔilvI ΔilvB strain with pSA63 and pSA55, after 64 hr.

Take `CC(C)CO` [isobutanol]: the “isobutanol concentration that inhibited the strain” value in data set [1] is on record as 1.5%. Further, the “isobutanol concentration in the presence of which mutants grow” value in data set [1] (mutants after 5 rounds of culture transfers with increasing isobutanol concentrations) turned out to be 2%.

B1: IPMS (G462D): feedback insensitive mutant of isopropylmalate synthase (leuA gene product) (protein, UniProt P09151 2-523, looked up, variant G462D)
2-isopropylmalate synthase: SQQVIIFDTTLRDGEQALQASLSVKEKLQIALALERMGVDVMEVGFPVSSPGDFESVQTIARQVKNSRVCALARCVEKDIDVAAESLKVAEAFRIHTFIATSPMHIATKLRSTLDEVIERAIYMVKRARNYTDDVEFSCEDAGRTPIADLARVVEAAINAGATTINIPDTVGYTMPFEFAGIISGLYERVPNIDKAIISVHTHDDLGLAVGNSLAAVHAGARQVEGAMNGIGERAGNCSLEEVIMAIKVRKDILNVHTAINHQEIWRTSQLVSQICNMPIPANKAIVGSGAFAHSSGIHQDGVLKNRENYEIMTPESIGLNQIQLNLTSRSGRAAVKHRMDEMGYKESEYNLDNLYDAFLKLADKKGQVFDYDLEALAFIGKQQEEPEHFRLDYFSVQSGSNDIATAAVKLACGEEVKAEAANGNGPVDAVYQAINRITEYNVELVKYSLTAKGHGKDALDQVDIVANYNGRRFHGVGLATDIVESSAKAMVHVLNNIWRAAEVEKELQRKAQHNENNKETV
With B1, in the data set on JCL260 [2], the KIC final concentration is on record as 1.61 g/L. The molecule further yielded a KIV accumulation in the data set with JCL260 [2] (JCL260 background, ilvE+ tyrB+) of 0.17 g/L. The molecule also yielded a KIC production in the data set on JCL260 [2] (ΔilvE background) of 2.31 g/L. Further, the KIC production in the data set on JCL260 [2] (ΔilvE ΔtyrB background) was 1.95 g/L. In addition, in the data set with JCL260 [3], the 3-methyl-1-butanol final titer is 459 mg/L and the isobutanol accumulation amounted to 15 mg/L.

B2: WT IPMS: wild-type isopropylmalate synthase, the E. coli leuA gene product (protein, UniProt P09151 2-523, looked up)
2-isopropylmalate synthase: B1 2-isopropylmalate synthase with D461G
In the data set on JCL260 [2] (ΔilvE background), B2 came in with a KIC production of 0.53 g/L and a KIV final concentration of 0.40 g/L. In the data set with JCL260 [2] (ΔilvE ΔtyrB background), the KIC production was 1.23 g/L and the KIV final concentration is on record as 0.37 g/L. For the same molecule, in the data set with JCL260 [3], the 3-methyl-1-butanol final titer is 308 mg/L and the isobutanol accumulation is given as 169 mg/L. Moreover, in the data set with JCL260 [3] (ΔilvE ΔtyrB strain), the 3-methyl-1-butanol final concentration turned out to be 553 mg/L and the isobutanol turned out to be 42 mg/L.

B3: WT: wild-type citramalate synthase CimA from M. jannaschii (SEQ ID NO:89) (protein, listed as Methanocaldococcus jannaschii)
chain: MMVRIFDTTLRDGEQTPGVSLTPNDKLEIAKKLDELGVDVIEAGSAITSKGEREGIKLITKEGLNAEICSFVRALPVDIDAALECDVDSVHLVVPTSPIHMKYKLRKTEDEVLETALKAVEYAKEHGLIVELSAEDATRSDVNFLIKLFNEGEKVGADRVCVCDTVGVLTPQKSQELFKKITENVNLPVSVHCHNDFGMATANTCSAVLGGAVQCHVTVNGIGERAGNASLEEVVAALKILYGYDTKIKMEKLYEVSRIVSRLMKLPVPPNKAIVGDNAFAHEAGIHVDGLIKNTETYEPIKPEMVGNRRRIILGKHSGRKALKYKLDLMGINVSDEQLNKIYERVKEFGDLGKYISDADLLAIVREVTGKLVEEKIKLDELTVVSGNKITPIASVKLHYKGEDITLIETAYGVGPVDAAINAVRKAISGVADIKLVEYRVEAIGGGTDALIEVVVKLRKGTEIVEVRKSDADIIRASVDAVMEGINMLLN
Take B3: in the data set with KS145 [4], the “Production of 1-Butanol” value came to 18 mg/L, the “Production of 1-Propanol” value is 302 mg/L, the “1-Butanol change (fold) relative to the strain containing wild-type CimA” value is on record as 1 fold and the “1-Propanol change (fold) relative to the strain containing wild-type CimA” value is 1 fold. Further, in the data set on KS145 [5], the 1-butanol produced entry is reported as “about 21 mg/L” and the 1-propanol produced result was “about 350 mg/L”.

B4: CimA1: CimA variant with three amino acid substitutions (Ile47Val, Lys435Asn, Val441Ala) (protein, UniProt Q58787 1-491, looked up, variant I47V K435N V441A)
(R)-citramalate synthase CimA: B3 chain with I47V, K435N, V441A
With B4, in the data set on KS145 [4], the “Production of 1-Butanol” value amounted to 22 mg/L, the “Production of 1-Propanol” value is 695 mg/L, the “1-Butanol change (fold) relative to the strain containing wild-type CimA” value is reported as 1.2 fold and the “1-Propanol change (fold) relative to the strain containing wild-type CimA” value is 2.3 fold.
